Five molecules from publication PMC11272584 (Nature Metabolism, 2024) can be followed below.

For assay [1], the system named is GIPR variants (groups). As to the kind of experiment: β-arrestin 2 recruitment (BRET).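 On all read-outs here: BRET readout of β-arrestin 2 recruitment in transiently transfected HEK293 cells expressing WT GIPR or a GIPR variant plus GPCR kinase 2, Rluc8 donor and citrine acceptor.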 The settings on record: for In vitro groups (β-arrestin): arr part of the in vitro group; for Beta, Barr: in vitro β-arrestin recruitment per GIPR variant. (In general: Arrestin recruitment assays detect the binding of arrestin to an activated receptor.)
The next assay concerns the target T1, GIPR E291K (Homo sapiens, UniProt P48546, E291K).
T1 construct: host or cells: HEK293
T1 sequence (P48546 22-466 E291K): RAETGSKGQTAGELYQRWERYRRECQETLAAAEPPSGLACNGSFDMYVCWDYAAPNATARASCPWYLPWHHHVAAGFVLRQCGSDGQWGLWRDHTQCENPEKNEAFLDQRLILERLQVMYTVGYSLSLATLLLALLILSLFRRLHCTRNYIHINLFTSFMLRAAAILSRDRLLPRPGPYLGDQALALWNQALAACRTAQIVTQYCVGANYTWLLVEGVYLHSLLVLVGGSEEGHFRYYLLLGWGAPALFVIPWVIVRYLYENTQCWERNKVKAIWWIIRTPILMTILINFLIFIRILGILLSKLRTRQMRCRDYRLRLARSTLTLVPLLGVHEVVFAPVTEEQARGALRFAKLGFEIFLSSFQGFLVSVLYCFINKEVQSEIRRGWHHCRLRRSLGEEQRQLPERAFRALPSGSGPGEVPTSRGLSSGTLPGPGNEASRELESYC
As to the kind of experiment: cAMP accumulation. In kind it is cell-based. In general terms: Cyclic AMP is a second messenger, typically raised through Gs and lowered through Gi signalling.

The subject of assay [2] is GIPR variants (groups). As to the kind of experiment: cAMP accumulation. The format is cell-based, human. The settings on record: for In vitro groups (cAMP): cAMP part of the in vitro group; for percentage_camp: cAMP production compared with WT; for Beta, cAMP: in vitro cAMP production per GIPR variant.
In the next assay the target is T2, GIPR I299V (Homo sapiens, UniProt P48546, I299V).
T2 construct: host or cells: HEK293
T2 sequence (P48546 22-466 I299V): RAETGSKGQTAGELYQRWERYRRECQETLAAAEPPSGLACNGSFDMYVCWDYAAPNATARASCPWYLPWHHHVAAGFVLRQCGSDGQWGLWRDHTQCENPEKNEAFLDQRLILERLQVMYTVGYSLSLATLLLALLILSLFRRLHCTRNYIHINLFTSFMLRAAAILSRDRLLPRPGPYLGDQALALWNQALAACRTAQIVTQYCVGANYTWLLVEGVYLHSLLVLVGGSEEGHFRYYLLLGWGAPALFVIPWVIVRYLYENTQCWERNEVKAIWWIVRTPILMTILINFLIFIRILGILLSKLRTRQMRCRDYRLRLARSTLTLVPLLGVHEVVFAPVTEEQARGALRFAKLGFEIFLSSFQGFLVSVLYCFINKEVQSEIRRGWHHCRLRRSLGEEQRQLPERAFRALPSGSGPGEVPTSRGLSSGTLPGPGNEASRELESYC
As to the kind of experiment: cAMP accumulation. The format is cell-based.

Another assay concerns the target T3, GIPR R300W (Homo sapiens, UniProt P48546, R300W).
T3 construct: host or cells: HEK293
T3 sequence (P48546 22-466 R300W): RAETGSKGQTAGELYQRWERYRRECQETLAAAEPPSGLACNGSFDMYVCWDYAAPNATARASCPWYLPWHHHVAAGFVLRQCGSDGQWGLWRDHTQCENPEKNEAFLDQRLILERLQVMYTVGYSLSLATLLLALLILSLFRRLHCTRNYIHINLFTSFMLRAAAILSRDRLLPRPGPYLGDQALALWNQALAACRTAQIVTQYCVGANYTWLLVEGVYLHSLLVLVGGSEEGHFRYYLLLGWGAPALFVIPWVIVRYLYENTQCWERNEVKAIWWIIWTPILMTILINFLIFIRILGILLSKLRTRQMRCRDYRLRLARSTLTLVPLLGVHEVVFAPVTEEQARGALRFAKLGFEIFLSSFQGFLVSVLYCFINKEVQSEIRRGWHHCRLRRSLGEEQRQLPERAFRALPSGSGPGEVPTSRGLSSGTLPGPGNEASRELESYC
As to the kind of experiment: cAMP accumulation. In kind it is cell-based.

Another assay concerns the target T4, GIPR A294V (Homo sapiens, UniProt P48546, A294V).
T4 construct: host or cells: HEK293
T4 sequence (P48546 22-466 A294V): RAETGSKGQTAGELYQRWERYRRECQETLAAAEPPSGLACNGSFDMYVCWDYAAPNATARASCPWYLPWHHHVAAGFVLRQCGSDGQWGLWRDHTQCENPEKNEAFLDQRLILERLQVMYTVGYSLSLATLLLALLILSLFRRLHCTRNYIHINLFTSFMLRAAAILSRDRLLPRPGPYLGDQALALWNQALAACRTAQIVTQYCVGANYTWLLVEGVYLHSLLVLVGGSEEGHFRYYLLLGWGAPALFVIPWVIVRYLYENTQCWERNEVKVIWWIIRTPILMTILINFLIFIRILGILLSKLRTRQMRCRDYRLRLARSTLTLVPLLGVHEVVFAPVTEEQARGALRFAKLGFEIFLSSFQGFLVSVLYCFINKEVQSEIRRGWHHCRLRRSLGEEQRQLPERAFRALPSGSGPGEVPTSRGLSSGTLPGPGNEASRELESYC
As to the kind of experiment: cAMP accumulation. The format is cell-based.

Another assay deals with T5, GIPR L304R (Homo sapiens, UniProt P48546, L304R).
T5 construct: host or cells: HEK293
T5 sequence (P48546 22-466 L304R): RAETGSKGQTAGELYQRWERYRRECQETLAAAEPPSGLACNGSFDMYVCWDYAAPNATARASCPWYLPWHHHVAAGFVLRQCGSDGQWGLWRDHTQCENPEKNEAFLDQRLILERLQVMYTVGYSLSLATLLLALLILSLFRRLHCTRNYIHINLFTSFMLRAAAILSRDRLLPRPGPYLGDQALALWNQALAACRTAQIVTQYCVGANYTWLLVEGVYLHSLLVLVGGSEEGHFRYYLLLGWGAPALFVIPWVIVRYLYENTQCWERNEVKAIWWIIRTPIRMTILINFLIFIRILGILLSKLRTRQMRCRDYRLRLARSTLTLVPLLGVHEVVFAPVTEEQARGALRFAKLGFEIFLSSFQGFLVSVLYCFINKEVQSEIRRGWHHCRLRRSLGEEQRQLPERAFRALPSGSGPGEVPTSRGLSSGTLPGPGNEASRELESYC
As to the kind of experiment: cAMP accumulation. The format is cell-based.

Method for GIPR A294V: (§1) HEK293 (CRL-1573, American Type Culture Collection) and β-arrestin 1/2 knockout cells, generated from HEK293A[48], were used for cAMP measurement, homologues competition binding and β-arrestin 2 recruitment. […] Both cell lines were cultured at 5% CO2 at 37 °C in Roswell Park Memorial Institute GlutaMAX-I supplemented with 10% fetal bovine serum, 180 units ml^−1 penicillin, and 45 g ml^−1 streptomycin. For the cAMP and binding experiments, cells were transfected with the calcium phosphate precipitation method[49].
(§2) cAMP production was measured with the DiscoverX Hithunter cAMP assay according to the manufacturer’s protocol (DiscoverX). […] On the day of the assay, the cells were washed twice with HEPES-buffered saline (HBS) and incubated with HBS and 1 mM 3-isobutyl-1-methylxanthine for 30 min at 37 °C. […] After the incubation, the assay medium was removed from the plate and the cells were washed with 30 µl PBS and treated with 40 µl enzyme donor–lysis buffer–chemiluminescent reagents and 10 µl cAMP antibodies for 60 min before 40 µl enzyme acceptor solution added. After a 3-h incubation on a shaking table in the dark, the cAMP accumulation was measured based on luminescence with a Perkin Elmer EnVision 2104 Multilabel Microplate Reader. […]
Method for GIPR E291K: as §1, §2
Method for GIPR I299V: as §1, §2
Method for GIPR L304R: as §1, §2
Method for GIPR R300W: as §1, §2

B1: E291K (protein)
chain: RAETGSKGQTAGELYQRWERYRRECQETLAAAEPPSGLACNGSFDMYVCWDYAAPNATARASCPWYLPWHHHVAAGFVLRQCGSDGQWGLWRDHTQCENPEKNEAFLDQRLILERLQVMYTVGYSLSLATLLLALLILSLFRRLHCTRNYIHINLFTSFMLRAAAILSRDRLLPRPGPYLGDQALALWNQALAACRTAQIVTQYCVGANYTWLLVEGVYLHSLLVLVGGSEEGHFRYYLLLGWGAPALFVIPWVIVRYLYENTQCWERNKVKAIWWIIRTPILMTILINFLIFIRILGILLSKLRTRQMRCRDYRLRLARSTLTLVPLLGVHEVVFAPVTEEQARGALRFAKLGFEIFLSSFQGFLVSVLYCFINKEVQSEIRRGWHHCRLRRSLGEEQRQLPERAFRALPSGSGPGEVPTSRGLSSGTLPGPGNEASRELESYC
In the case of B1, in the assay with GIPR variants (groups) [1], the “In vitro groups (β-arrestin)” value is listed as “LoF_arr” and the “Beta, Barr” value was determined as 0.1982. The “Efficacy at 100pmol (cAMP)” value with GIPR E291K turned out to be 0.3479. Further, in the assay on GIPR variants (groups) [2], the “In vitro groups (cAMP)” value is recorded as “LoF_camp”; the percentage_camp was under 50% cAMP; the “Beta, cAMP” value stood at 0.3479.

B2: I299V (protein)
chain: RAETGSKGQTAGELYQRWERYRRECQETLAAAEPPSGLACNGSFDMYVCWDYAAPNATARASCPWYLPWHHHVAAGFVLRQCGSDGQWGLWRDHTQCENPEKNEAFLDQRLILERLQVMYTVGYSLSLATLLLALLILSLFRRLHCTRNYIHINLFTSFMLRAAAILSRDRLLPRPGPYLGDQALALWNQALAACRTAQIVTQYCVGANYTWLLVEGVYLHSLLVLVGGSEEGHFRYYLLLGWGAPALFVIPWVIVRYLYENTQCWERNEVKAIWWIVRTPILMTILINFLIFIRILGILLSKLRTRQMRCRDYRLRLARSTLTLVPLLGVHEVVFAPVTEEQARGALRFAKLGFEIFLSSFQGFLVSVLYCFINKEVQSEIRRGWHHCRLRRSLGEEQRQLPERAFRALPSGSGPGEVPTSRGLSSGTLPGPGNEASRELESYC
On to B2, for which, in the assay with GIPR variants (groups) [1], the “In vitro groups (β-arrestin)” value is “WT-like_arr” and the “Beta, Barr” value is given as 0.7578. For the same molecule, the “Efficacy at 100pmol (cAMP)” value with GIPR I299V amounted to 1.005. In the assay with GIPR variants (groups) [2], the “In vitro groups (cAMP)” value is “WT-like_camp”; the percentage_camp is over 50% cAMP; the “Beta, cAMP” value came to 1.005.

B3: R300W (protein)
chain: RAETGSKGQTAGELYQRWERYRRECQETLAAAEPPSGLACNGSFDMYVCWDYAAPNATARASCPWYLPWHHHVAAGFVLRQCGSDGQWGLWRDHTQCENPEKNEAFLDQRLILERLQVMYTVGYSLSLATLLLALLILSLFRRLHCTRNYIHINLFTSFMLRAAAILSRDRLLPRPGPYLGDQALALWNQALAACRTAQIVTQYCVGANYTWLLVEGVYLHSLLVLVGGSEEGHFRYYLLLGWGAPALFVIPWVIVRYLYENTQCWERNEVKAIWWIIWTPILMTILINFLIFIRILGILLSKLRTRQMRCRDYRLRLARSTLTLVPLLGVHEVVFAPVTEEQARGALRFAKLGFEIFLSSFQGFLVSVLYCFINKEVQSEIRRGWHHCRLRRSLGEEQRQLPERAFRALPSGSGPGEVPTSRGLSSGTLPGPGNEASRELESYC
In the case of B3, in the assay on GIPR variants (groups) [1], the “In vitro groups (β-arrestin)” value is given as “LoF_arr” and the “Beta, Barr” value came out at 0. Moreover, the “Efficacy at 100pmol (cAMP)” value in the assay with GIPR R300W stood at 0.0005276. Moreover, in the assay on GIPR variants (groups) [2], the “In vitro groups (cAMP)” value is listed as “LoF_camp”; the percentage_camp is on record as under 50% cAMP; the “Beta, cAMP” value was determined as 0.

B4: A294V (protein)
chain: RAETGSKGQTAGELYQRWERYRRECQETLAAAEPPSGLACNGSFDMYVCWDYAAPNATARASCPWYLPWHHHVAAGFVLRQCGSDGQWGLWRDHTQCENPEKNEAFLDQRLILERLQVMYTVGYSLSLATLLLALLILSLFRRLHCTRNYIHINLFTSFMLRAAAILSRDRLLPRPGPYLGDQALALWNQALAACRTAQIVTQYCVGANYTWLLVEGVYLHSLLVLVGGSEEGHFRYYLLLGWGAPALFVIPWVIVRYLYENTQCWERNEVKVIWWIIRTPILMTILINFLIFIRILGILLSKLRTRQMRCRDYRLRLARSTLTLVPLLGVHEVVFAPVTEEQARGALRFAKLGFEIFLSSFQGFLVSVLYCFINKEVQSEIRRGWHHCRLRRSLGEEQRQLPERAFRALPSGSGPGEVPTSRGLSSGTLPGPGNEASRELESYC
For B4, in the assay with GIPR variants (groups) [1], the “In vitro groups (β-arrestin)” value is “WT-like_arr” and the “Beta, Barr” value was found to be 0.6328. Besides, the “Efficacy at 100pmol (cAMP)” value with GIPR A294V turned out to be 0.6171. Moreover, in the assay with GIPR variants (groups) [2], the “In vitro groups (cAMP)” value was “WT-like_camp”; the percentage_camp was over 50% cAMP; the “Beta, cAMP” value is 0.6171.

B5: L304R (protein)
chain: RAETGSKGQTAGELYQRWERYRRECQETLAAAEPPSGLACNGSFDMYVCWDYAAPNATARASCPWYLPWHHHVAAGFVLRQCGSDGQWGLWRDHTQCENPEKNEAFLDQRLILERLQVMYTVGYSLSLATLLLALLILSLFRRLHCTRNYIHINLFTSFMLRAAAILSRDRLLPRPGPYLGDQALALWNQALAACRTAQIVTQYCVGANYTWLLVEGVYLHSLLVLVGGSEEGHFRYYLLLGWGAPALFVIPWVIVRYLYENTQCWERNEVKAIWWIIRTPIRMTILINFLIFIRILGILLSKLRTRQMRCRDYRLRLARSTLTLVPLLGVHEVVFAPVTEEQARGALRFAKLGFEIFLSSFQGFLVSVLYCFINKEVQSEIRRGWHHCRLRRSLGEEQRQLPERAFRALPSGSGPGEVPTSRGLSSGTLPGPGNEASRELESYC
On to B5, for which the “Efficacy at 100pmol (cAMP)” value with GIPR L304R stood at 0.2373. Also, in the assay on GIPR variants (groups) [1], the “In vitro groups (β-arrestin)” value is “LoF_arr” and the “Beta, Barr” value was determined as 0.1329. Also, in the assay with GIPR variants (groups) [2], the “In vitro groups (cAMP)” value is “LoF_camp”; the percentage_camp is on record as under 50% cAMP; the “Beta, cAMP” value was 0.2373.
